This series can be described thus: label from the status in PepcDB records.

The record followed here is a protein production outcome set (Wang et al. 2014).

As to “MATKNSAPLASFIDLLLDAVCAVDVEGRFVFVSAACERVFGYTADELIGRPMIELVHPADRERTLQAAREIMGGVPKPNFENRYVRKDGRVAHILWSARWSEVDQLRIAVARDITERKQAESRQAALYAISEAAHATEDLLVLFRHVHRIIGEWLPALNCSLALYDERSASLSFPYHVDDCEGSPELPGTLIERFCVEVLQCGQPLLLAPECPVNRVLWSEFAAIQGSRCWLGVPLNSQKGTIGVLMVKSAPGTESYSEQDQELLQYVSAQLAAAIERKQLHARLHYMAEYDQLTHLPNRELLRERLRSALARARRESGRMALLYVDLDKFKEVNDTCGHAVGDMLLQAVANRLKGCVRETDTVARIGGDEFVILLESVQHSEDAQRVAEKIRRTLGEPLRLDGHSLNILPSIGIGLYPEHGLEEKQLFKHADEAMYAVKRAQKSRSNA”, the protein production result is given as “failed”.

As for “MATKRANGEGSIGKYKDGWRSRIMIGYNEDGKPLRKEFYGKTQKEVKDKLDAYKKQYYLSSDISDDKITLEHWFYNWLFEYRIKDLKPKSFERYESIYRNYIKDTDLGNVKLKYLRVSHIQKYYNRLLDSNKSIPTIRQINTKLKTCLSEAEKQGLIQRNYCTMVNIPVEKKENKLEILTLEQQKSFIKAIDGHKLEVLFLLALGTGLRLGELLGLKWFDIDFKKSNLTVKRTLQRTYFIDKTGNRELKVLEQGPKTSNSYRTVPIPKDVLNKLKEHKVNQNTDILKAGELYINNNYVFCNELGIPIDDKRPLRNLKSILNSLNIEPIKFHGLRKTYATRLFENDVPPKTVQVLMGHYDISITLNIYTQVMEDKKVEAVEKLDKIFSL”, the protein production result was “failed”.

Take “MATPKLEAYRKKRDFSKTPEPVGNLTAGGNRFVVHKHHATADHYDLRLEVDGVLKSWAVPKGPSLNPADKRLAVETEDHPLDYIDFEGVIPEGEYGGGPMIVWDKGVWAPMGDVDDDLRKGAFKFRLAGEKLNGGWMLARLKRRPGEEDQRNWLLFKERDPAADTSIDILAARPESVKSGRRIEELVEKPKAPPKPVKLNPGALAGAVKAAQPERIEPQLATQTILPPEAEKDSKKPERWLHEIKFDGYRTMAHVADGKVRLVTRGGLDWTKRYGDLPEVFRRLPCRDVIIDGEIVVLDETGVSRFALLQDALSTGAGNSLVFYAFDLLHLNGWNLFDVPLEKRKALLKQLLAGQVSSRSAIQFSDHVLGEGRALYDRASEMGLEGIVSKRISAPYRSGRSKTWTKTKALKAEDFVIVGYTVSEAAEGIASLALGEWADGELEYRGKVGTGFDAQMLKELLARLEPLRAGAAKLEGAPREIIWVRPLLRAHIHYGNRTTDNVLRHAVFKGLRDVELSTPVSMSRKRLISDADLAGISITNPTRRLFGKSGPTKLDLAVYYAMIGDFMLPHILGRPVSLVRCPTGRTQDCFFQRHPFTGMPPSVATFQATNSEGEAKTYLSVEDARGYLALAQFGVVEFHNWGTTRKLLGKPDRVVFDLDPGEGIAWREVVEAAIHIKAELEALALVPFVKTSGGRGVHVVVPVVPKLDWKKFHQATSALATRLAATAPATFTTTMGKDNRIRRIFIDFHRNARSHTWAAPYSLRARTNLPASTPLSWADLETIDAPADLNYSSLPGLLATSGDPWADIDDFARDLPIL”: the protein production entry is listed as “failed”.

In the case of “MATQAAGIFSPAITTTTSAVKKLHLFSSSHRPKSLSFTKTAIRAEKTESSSAAPAVKEAPVGFTPPQLDPNTPSPIFAGSTGGLLRKAQVEEFYVITWNSPKEQIFEMPTGGAAIMREGPNLLKLARKEQCLALGTRLRSKYKITYQFYRVFPNGEVQYLHPKDGVYPEKANPGREGVGLNMRSIGKNVSPIEVKFTGKQSYDL”, the protein production entry is reported as “failed”.

Consider “MATQARLPLPVGSTTSVSVVIPAKNVAAYVGETLASALAQGEVTEVIVVDDGSTDNTIAIVRAIRDPRLRLMTNDSAGVSAARNLGARHASGEWLLFLDADDRLRPGAVAALLAAARGAPRAVLVYGDYNTIDSEGRQVGRRDLLKGRRKPSGDVLTRLAASNFIVNGGIALARAEAFRAIGGFDTSLRYCEDWHCWCRLAAIGEFEFAPKLLLDYRLHTANTMNAAVRTPQDFFPAIARVFDDGLILARLPEGTAARLRQAAEIHLVTYSAMQAVRFGRYRQAFTYLGMVGRRSLKSLPRSALRVALACFGILEHHHHHH”, for which the protein production entry is “failed”.

“MATRQPLDATACSLMVGLCAIWGLQQVALKATASDIAPVLQIALRSGGAALLVGLLMCWRGERLGLGDGHWRPGLLVGGLFALEFLLVGEGLRYTTASHMAIFLYTAPIFAALGLHWLMPAERLKPAQWLGIGVAFGGIVVAFSGPAAAGHGGGSHVLLGDFLGVLGGVAWGATTVVVRCSRLASSPTTRTLQYQLLGAFVWLGLAALLTDQTSIHFTPLVVASLGFQVLVVSFASFLIWFTLLRRYPASRLGVLSFMTPLFGIGFGVWLLHEPLEPNFIFGALLVLAGIVMVSGYEWLRQRFKRNRESPVAPRSS”: the protein production entry was “failed”.

For the sequence “MATRSCVSRGSAGSAAAGPVEAAIRAKLEQALSPEVLELRNESGGHAVPAGSETHFRVAVVSSRFEGMSPLQRHRLVHEALSEELAGPVHALAIQAKTPAQWRENPQLDISPPCLG”, the protein production result was “not failed”.

As to “MATTLLSPTRFVHGLRFDNLRGDIFGGITAAIVALPLALAFGVASGAGPIAGLYGAICTGFFAALFGGTPAQISGPTGPMTVVMASTFANLTASNPENGWAMALTVVMFGGIFQVVLGLLGLGKYITFMPYTVISGFMSGIGVIIVILQIAPLLGHQTAPGVVPSLQAIPTYLNDVNFAALGLGLIALAIVFFSPPRLNRILPAPLIALVLGTIISMIFFGNVSLPRIGEIPSGLPSLHLPYLSWGSLQQMLLYSIMLAVLGSLDSLLTSLVADNISRSHHDSDRELVGQGIGNLVSGLCGGLPGAGATMRTVININSGGKTPIAGMIHALILLMIVLKAGQLTEPIPHAVLAGILIKVGIDIVDWSFLKRAHQLSTKGAGLMYLVLGLTVFVDLITAVAVGVFVANLFTVKNLTDLQLESIKSVTRADGEDWLLEEEQQILRAANGRIFMFHLSGPMSFGAAKSIARRLAIVENYDVLILDLATVPRLGVTALLAIETMLKDALAKQREVFLVGAKGQVQARLQRLPVLAQLSPHHRLESRLLALQMAAVCINVD”, the protein production result is given as “failed”.

With “MATTPRVDAGGGSSMFAAVPLLALPVIVYNLVALTLTGGFKATDATARMNEALFTIHMTSRTDWAVSLGDLLMAASLVVLFVELLKSTTSRKIAIINHSLSMVLFILCLVEFLLAPAFATSTFFLITLMVLLDVLAGFIVTIVAARRDVDFGDN”, the protein production result is reported as “failed”.

As for “MATTSAQTSPTEFGAGLPEAEDHSESAEPQSVEAEVIDERYADVWEKIQHARTIDVHDDAEVRKQRNFFDDKQKFMTQVTQRAEPFLYYIVSQLEARNMPLELALLPIVESGYNPLAQANGPAGLWQMIPATGRNFGLTINSAYDGRKDALASTDAVLDYLQHLYNTLGNDWINAVAGYNSGELVIKAAIDRNKAKGKPTDFWSLNIPARQVQTVPKWLAFIQIIREPSHYNLKVMPIANRPFLERLPAPNGVEISQIANAAGLTKAEFKTYNPGYRQSVIPSKGKYQIALPIENIGHYQENQHKLYAQKRYDSQTYIVKSGDSLGTIAAKFDLSVKELKQANNLTSDRLKIGQELTLLTPMAANDNEPEPVKTKANTDKSSTKANASSTKATSSKSTDKPVAKAKTYKVKSGDSLDKIARKSKVKLADLMKWNQLNAKSIIKPGQELKISELEHHHHHH”, the protein production result is given as “failed”.

On to “MATVIAKPEAIAPEPKRRFTWPRGSRLGRLIVVLNVVALAIVIVGALILNELRNGLVNARIDSLSTQGELIANVIDQSATVGEPEPALDPYTASQIFQLLFIPRSQRARLFDAQGKALADSFVVADRVDWKVLPPARKPDQKDDDARTTPDRAAKAKRAQEALANEIAQAMRGRTVAGTRIAENGERVVSVSIPIQHVKAVLGVLTLEASDVDEIIAAQRKALLPFIAVAMLAILTSSVLLHRLIAVPVLRLARAADHVRLQGARAISLPDLSERKDELGDLSRSLEDMTHSLSERMDAIERFAADVAHEIKNPLTSIRSAIETLDLVTEPAARARLLAILQNDVNRLDRLVTDISNASRLDAELSREHPKALDLGRLLTEVVSLYENQWRPGDAPGSVRVSLSLADPSQPAIILGRETPIGQVFRNLIDNARSFSPADGEVRVTLSRTRGGLIAAVEDDGPGMPPENLETIFERFYTSRPKGRAFGGNSGLGLSIARQIVETHGGTVHAENRKDANGAVVGARFVVELPDARE”, for which the protein production result is listed as “failed”.

In the case of “MATVPSNPAFAPTLSTRGRLNGILFVALFAVAVTQLAAMPAIANLGISPLIVGIVAGALYGNALRDGVPASWAAGINFSARGLLRIAVAFFGLRVSLQEIAEVGWSGLIVSVLVVTSTLLIGLWCGMKVFKLDRDTALLTAAGSAICGAAAVLAFESALRSAPHKSAMAVGSVVLFGTLSMFLYPLAINAGWLHLDTMGAGLLLGGTVHEVAQVVGAASNVSPEATHVATIVKMTRVMLLVPVLLVVGLWISRSRKAGQAQGNGRIAMPWFAFGFLALVLVNSMQVLPGSVTQAVNSLDTFALTMAMTALGMETRFSQIRQAGPRALATGAILNLWLVGGGLAITLGVQKLLG”, the protein production result is given as “failed”.

For “MATYSLANERLRALEDIEREIGAILQNAGTAILELSKEKTNERLLDRQAAAFTTSVQHVEAELSAQIRYLTQVATGQPHEGSSYSSRKDCQMALKRVDYARLKISDVARTCEQMLEN”, the protein production result is reported as “failed”.

Consider “MAVDWERRIDFDRLRTQRLTRALDALERSELGALLLFDMNNIRYTTATHIGNWARDKLFRMALLIRGQAPILWDIGSAARLHQMQAPWLPQESWRAGLSTWRGAIDDEVGVQTGNAKKVADLLREHGLANDPVGVDVVELPMLKALEAEGLTIVDGQGLMLDVRSIKTVDEIALLDHAAACVDAAYEELYKFLRVGVKENETVALVNKVLYELGSEEVEAVNAISGERCSPHPHVFSDRMIRPMDTAYFDIVHSYMGYRTCYYRTLNVAGATRAQRDAYKRAREYIDLAISEVKPGVLTSDIVKHFPAAQEFGFASEEEAFGLQYCHGVGLSVWEKPLMSRYHSFDHPVEIKEGMVFALETYWPTADGSSAARIEEEVEVTATGARVITRFPADELLVAGTRYWNGFDFPEIKAPIGRGVASGVAATNGAGAS”, for which the protein production result was “failed”.

For the sequence “MAVFVALGAFLMTLAGGWTAQRVTDRRHLVLGLAGGLMLGVVGMDLLPEALDAAGGKVFGVPAALLLFVAGFLLAHLVERLLAHRQAAHGGAESNGRAPEVGLTAAAAMVGHSAMDGVAIGAAFQVGGGMGLAVAVAVIAHDFADGFNTYTLTALYGNARRKAVIMLVADAVAPVLGAASTLAFTIPERLLGGYLALFGGALLYLAAAEILPEAHHEHPARSTLLCTVAGVGFIWLVVGLAG”, the protein production result is “failed”.

Turning to “MAVIADPETAQGFRLAGLEGYGASSAEEAQSLLETLVERGGYALVAVDEALLSDPERAVERLMRGRDLPVLLPIAGLKEAFQGHDVEGYMRELVRKTIGFDIKLLEHHHHHH”, the protein production entry is “failed”.

Take “MAVLNLFHIFATTVDSTAVEKNLLIMKFYNREKEIAELKRVQELAFGQNSRMIVVTGRRRIGKTSLIKQALKGTPTVYFFIGRKAESILVADFIKIVRETLSIFIPDGISNFTTLIQYLFEIGKTRSFNIVIDEFQEFYNIRPDVFSDMQNLWDEYRQETKINLVISGSVYSLMQKIFTDHGEPLFGRADNILCLRPFNTKVLKQIMEDFAPGYSNDDLLALYTLTGGIPKYVELFCDNQALSVDRIYDFVFSENSLFIDEGRNLLITEFGKNYGIYFSILLEIANGHYTQGEIESALGGISIGGHLSKLENVYNLITRERPIFAKPGTKKNVRYIIGDNFLNFWFKYIERNRSYIELQNFEDLRQLAKADYQTYSGRVLEKYFKQKLAEEGGFKEIGSWWETKSSANKERLNSFEIDIVALKSSGKKALIAEVKRMPENNYVHSTFMEKVEHLKHKEMAKYDIETRVLGLEDM”: the protein production entry is recorded as “failed”.
